The target in assay [1] is Protein tyrosine phosphatase receptor type gamma (PTPRG) (human) (UniProt P23470). The experiment in a line: cell-based or functional assay.
For assay [2], the target named is PTP Receptor type C (PTPRC or CD45) (human) (UniProt P08575). Kind of assay: cell-based or functional assay.
Assay [3] concerns the target JAK2 (Janus protein-tyrosine kinase 2) (human) (UniProt O60674).
The target is the same in assay [4]. Kind of assay: negative-control pull-down on nickel gel; lysate of resting human monocytes; mean of 3 experiments.

Like-named read-outs stand apart in the source and are kept apart here.

Chain of PTP Receptor type C (PTPRC or CD45) (human) (P08575 26-1306 limits assumed): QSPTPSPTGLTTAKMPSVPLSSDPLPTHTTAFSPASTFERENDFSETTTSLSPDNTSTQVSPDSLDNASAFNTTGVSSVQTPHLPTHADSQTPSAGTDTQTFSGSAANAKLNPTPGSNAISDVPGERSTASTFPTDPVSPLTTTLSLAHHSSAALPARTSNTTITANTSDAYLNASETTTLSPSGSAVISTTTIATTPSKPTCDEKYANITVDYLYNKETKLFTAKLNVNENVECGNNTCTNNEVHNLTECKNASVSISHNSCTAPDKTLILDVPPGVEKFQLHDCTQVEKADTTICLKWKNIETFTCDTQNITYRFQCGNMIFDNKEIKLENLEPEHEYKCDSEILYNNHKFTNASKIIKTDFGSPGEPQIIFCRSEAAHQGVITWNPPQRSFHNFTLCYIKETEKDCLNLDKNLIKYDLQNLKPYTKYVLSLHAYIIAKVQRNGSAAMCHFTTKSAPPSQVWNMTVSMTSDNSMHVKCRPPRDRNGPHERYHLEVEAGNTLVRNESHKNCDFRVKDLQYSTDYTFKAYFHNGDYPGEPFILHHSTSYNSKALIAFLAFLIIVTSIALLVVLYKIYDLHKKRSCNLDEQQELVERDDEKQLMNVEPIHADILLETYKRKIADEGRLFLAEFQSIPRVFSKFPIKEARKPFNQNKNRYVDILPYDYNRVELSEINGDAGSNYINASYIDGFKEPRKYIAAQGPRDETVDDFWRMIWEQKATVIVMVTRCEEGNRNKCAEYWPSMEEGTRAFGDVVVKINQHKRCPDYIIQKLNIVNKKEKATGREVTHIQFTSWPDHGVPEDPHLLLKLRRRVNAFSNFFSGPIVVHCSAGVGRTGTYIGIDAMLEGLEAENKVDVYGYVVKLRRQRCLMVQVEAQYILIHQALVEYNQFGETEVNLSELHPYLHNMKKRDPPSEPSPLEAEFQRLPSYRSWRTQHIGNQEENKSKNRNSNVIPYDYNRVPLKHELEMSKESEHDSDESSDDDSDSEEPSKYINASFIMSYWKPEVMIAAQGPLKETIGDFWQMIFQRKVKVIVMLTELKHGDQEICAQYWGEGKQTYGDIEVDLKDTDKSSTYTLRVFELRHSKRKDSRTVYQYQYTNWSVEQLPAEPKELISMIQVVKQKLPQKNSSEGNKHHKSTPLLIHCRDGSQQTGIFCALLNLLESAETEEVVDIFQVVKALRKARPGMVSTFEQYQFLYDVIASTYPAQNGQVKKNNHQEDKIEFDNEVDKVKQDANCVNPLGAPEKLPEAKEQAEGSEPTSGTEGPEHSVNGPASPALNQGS

In assay [1], P1 (Penetratin 1) control peptide came in with a phosphatase activity (pNPP, absorbance at 405 nm, percent fold increase over the blank) in monocyte membrane fractions, P1 control (percent fold increase over the blank) of 16.

Turning to “P1-WD Trojan peptide (Penetratin fused to the PTPRG wedge domain)”, in assay [2], the phosphatase activity (pNPP, absorbance at 405 nm, percent fold increase over the blank) in PMN membrane fractions, P1-WD 50 micromolar (percent fold increase over the blank) was determined as 5.15; the phosphatase activity (pNPP, absorbance at 405 nm, percent fold increase over the blank) in PMN membrane fractions, P1-WD 100 micromolar (percent fold increase over the blank) amounted to 8.54; the phosphatase activity (pNPP, absorbance at 405 nm, percent fold increase over the blank) in PMN membrane fractions, P1-WD 200 micromolar (percent fold increase over the blank) amounted to 12.9. In assay [1], this substance displayed a phosphatase activity (pNPP, absorbance at 405 nm, percent fold increase over the blank) in monocyte membrane fractions, P1-WD 50 micromolar (percent fold increase over the blank) of 34.6; a phosphatase activity (pNPP, absorbance at 405 nm, percent fold increase over the blank) in monocyte membrane fractions, P1-WD 100 micromolar (percent fold increase over the blank) of 86.7; a phosphatase activity (pNPP, absorbance at 405 nm, percent fold increase over the blank) in monocyte membrane fractions, P1-WD 200 micromolar (percent fold increase over the blank) of 109.

TAT-eGFP: the figures for the JAK2 band (anti-JAK2 Western blot of pull-down), mean in assay [3] and in assay [4] were 1.5 and 4.4, respectively.

The values are drawn from patent US20180256687A1.
